Results from PMC9482650, “Quantitative fragmentomics allow affinity mapping of interactomes” (Nature Communications, 2022).

Assays:
Test in all cases: holdup assay
Set-up in all cases: key: below the threshold = too weak to quantify, mostly under pKd 3.1 to 4
Conditions in all cases: plain residues with an end cap or a label only (N-terminal biotin on a linker: ahx)
NHERF3_1, Q5T2W1 = target: T1, NHERF3_1, Q5T2W1
T1 sequence (Q5T2W1 4-100, limits assumed, looked up): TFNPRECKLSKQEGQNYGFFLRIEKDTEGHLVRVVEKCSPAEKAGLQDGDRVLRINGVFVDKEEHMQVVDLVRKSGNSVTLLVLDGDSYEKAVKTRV

DLG1_2, Q12959 = target: DLG1_2, Q12959
Sequence of DLG1_2, Q12959 (Q12959 314-412): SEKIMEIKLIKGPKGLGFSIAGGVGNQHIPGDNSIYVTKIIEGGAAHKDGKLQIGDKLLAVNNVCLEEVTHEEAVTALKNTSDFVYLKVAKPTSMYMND

MAST2, Q6P0Q8 = target: MAST2, Q6P0Q8
Sequence of MAST2, Q6P0Q8 (Q6P0Q8 1099-1202): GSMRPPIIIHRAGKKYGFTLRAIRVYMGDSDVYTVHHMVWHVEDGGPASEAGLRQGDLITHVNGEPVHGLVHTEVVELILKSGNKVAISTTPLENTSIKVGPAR

GORASP2, Q9H8Y8 = target: GORASP2, Q9H8Y8
SCRIB_1, Q14160 = target: SCRIB_1, Q14160
Sequence of SCRIB_1, Q14160 (Q14160 718-814): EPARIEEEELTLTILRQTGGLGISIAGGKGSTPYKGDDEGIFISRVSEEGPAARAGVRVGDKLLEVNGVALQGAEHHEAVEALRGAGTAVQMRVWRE

SYNJ2BP, P57105 = target: T2, SYNJ2BP, P57105
T2 sequence (P57105 8-110, limits assumed, looked up): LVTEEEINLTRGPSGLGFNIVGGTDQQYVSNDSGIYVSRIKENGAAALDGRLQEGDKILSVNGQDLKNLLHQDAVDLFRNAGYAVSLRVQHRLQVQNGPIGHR

ARHGAP21, Q5T5U3 = target: T3, ARHGAP21, Q5T5U3
T3 sequence (Q5T5U3 45-169, limits assumed, looked up): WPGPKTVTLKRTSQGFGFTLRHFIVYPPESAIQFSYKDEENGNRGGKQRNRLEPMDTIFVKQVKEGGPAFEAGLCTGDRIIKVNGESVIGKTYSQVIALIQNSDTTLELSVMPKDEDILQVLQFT

GIPC2, Q8TF65 = target: GIPC2, Q8TF65
Sequence of GIPC2, Q8TF65 (Q8TF65 112-203): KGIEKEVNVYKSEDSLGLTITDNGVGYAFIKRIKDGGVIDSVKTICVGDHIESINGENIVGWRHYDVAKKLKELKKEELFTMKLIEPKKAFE

LNX1_2, Q8TBB1 = target: LNX1_2, Q8TBB1
Sequence of LNX1_2, Q8TBB1 (Q8TBB1 371-470): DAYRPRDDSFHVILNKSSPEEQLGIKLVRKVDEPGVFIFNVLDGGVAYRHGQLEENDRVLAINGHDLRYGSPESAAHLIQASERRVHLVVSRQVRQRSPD

DFNB31_2, Q9P202 = target: T4, DFNB31_2, Q9P202
T4 sequence (Q9P202 274-371, limits assumed, looked up): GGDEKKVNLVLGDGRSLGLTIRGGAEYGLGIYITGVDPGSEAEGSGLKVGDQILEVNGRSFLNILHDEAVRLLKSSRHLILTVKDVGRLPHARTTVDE

NHERF3_4, Q5T2W1 = target: T5, NHERF3_4, Q5T2W1
T5 sequence (Q5T2W1 373-468, limits assumed, looked up): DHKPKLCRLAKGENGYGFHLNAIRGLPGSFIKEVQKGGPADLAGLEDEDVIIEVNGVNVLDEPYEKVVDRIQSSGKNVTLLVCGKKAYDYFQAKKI

APBA3_1, O96018 = target: T6, APBA3_1, O96018
T6 sequence (O96018 389-490, limits assumed, looked up): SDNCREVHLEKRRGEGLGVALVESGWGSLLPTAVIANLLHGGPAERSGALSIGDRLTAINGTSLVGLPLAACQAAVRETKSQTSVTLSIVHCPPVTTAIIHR

RHPN1, Q8TCX5 = target: T7, RHPN1, Q8TCX5
T7 sequence (Q8TCX5 508-602, limits assumed, looked up): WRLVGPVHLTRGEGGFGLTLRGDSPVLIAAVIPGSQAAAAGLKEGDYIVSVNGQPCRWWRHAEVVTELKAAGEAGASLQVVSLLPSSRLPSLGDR

DLG4_2, P78352 = target: DLG4_2, P78352
Sequence of DLG4_2, P78352 (P78352 155-259): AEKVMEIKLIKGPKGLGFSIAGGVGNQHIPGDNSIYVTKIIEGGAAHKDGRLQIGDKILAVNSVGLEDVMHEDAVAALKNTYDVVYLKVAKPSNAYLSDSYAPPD

FRMPD2_2, Q68DX3 = target: FRMPD2_2, Q68DX3
Sequence of FRMPD2_2, Q68DX3 (Q68DX3 944-1038): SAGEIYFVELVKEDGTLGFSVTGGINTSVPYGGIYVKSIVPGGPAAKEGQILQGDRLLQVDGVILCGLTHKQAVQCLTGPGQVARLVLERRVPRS

DLG3_3, Q92796 = target: T8, DLG3_3, Q92796
T8 sequence (Q92796 374-475, limits assumed, looked up): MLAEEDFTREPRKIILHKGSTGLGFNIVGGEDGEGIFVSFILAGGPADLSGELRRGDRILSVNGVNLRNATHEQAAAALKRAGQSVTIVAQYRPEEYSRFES

LNX2_3, Q8N448 = target: T9, LNX2_3, Q8N448
T9 sequence (Q8N448 463-564, limits assumed, looked up): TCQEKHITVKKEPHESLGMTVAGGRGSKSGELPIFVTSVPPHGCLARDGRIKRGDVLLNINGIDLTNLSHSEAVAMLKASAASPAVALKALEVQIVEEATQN

DLG4_1, P78352 = target: DLG4_1, P78352
Sequence of DLG4_1, P78352 (P78352 62-152): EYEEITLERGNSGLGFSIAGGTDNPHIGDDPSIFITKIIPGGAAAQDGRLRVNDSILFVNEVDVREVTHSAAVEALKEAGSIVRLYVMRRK

DLG4_3, P78352 = target: DLG4_3, P78352
Sequence of DLG4_3, P78352 (P78352 306-403): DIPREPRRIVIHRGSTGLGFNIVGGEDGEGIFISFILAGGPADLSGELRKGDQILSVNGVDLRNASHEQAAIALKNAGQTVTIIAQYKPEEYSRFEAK

GRIP2_3, Q9C0E4 = target: GRIP2_3, Q9C0E4
Sequence of GRIP2_3, Q9C0E4 (Q9C0E4 238-339): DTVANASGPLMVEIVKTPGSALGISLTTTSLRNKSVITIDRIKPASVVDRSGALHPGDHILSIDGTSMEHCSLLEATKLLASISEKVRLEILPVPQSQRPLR

NHERF4_4, Q86UT5 = target: NHERF4_4, Q86UT5
Sequence of NHERF4_4, Q86UT5 (Q86UT5 464-550): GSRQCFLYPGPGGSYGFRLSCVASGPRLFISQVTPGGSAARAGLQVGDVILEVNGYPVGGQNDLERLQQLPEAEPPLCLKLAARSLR

DLG5_1, Q8TDM6 = target: DLG5_1, Q8TDM6
Sequence of DLG5_1, Q8TDM6 (Q8TDM6 617-713): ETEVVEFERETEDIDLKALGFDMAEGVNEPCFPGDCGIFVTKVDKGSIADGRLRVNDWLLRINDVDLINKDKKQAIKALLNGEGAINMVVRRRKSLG

GRIP2_6, Q9C0E4 = target: GRIP2_6, Q9C0E4
Sequence of GRIP2_6, Q9C0E4 (Q9C0E4 648-740): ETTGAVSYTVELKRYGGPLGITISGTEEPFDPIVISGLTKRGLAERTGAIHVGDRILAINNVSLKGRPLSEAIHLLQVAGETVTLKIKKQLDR

FRMPD4, Q14CM0 = target: FRMPD4, Q14CM0
Sequence of FRMPD4, Q14CM0 (Q14CM0 67-160): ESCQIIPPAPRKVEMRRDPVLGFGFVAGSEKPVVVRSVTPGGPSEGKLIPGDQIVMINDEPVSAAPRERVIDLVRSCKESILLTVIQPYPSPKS

SNX27, Q96L92 = target: SNX27, Q96L92
LRRC7, Q96NW7 = target: T10, LRRC7, Q96NW7
T10 sequence (Q96NW7 1440-1537, limits assumed, looked up): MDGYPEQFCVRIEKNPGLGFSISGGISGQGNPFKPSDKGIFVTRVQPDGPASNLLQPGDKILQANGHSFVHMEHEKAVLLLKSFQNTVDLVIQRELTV

MAGI3_2, Q5TCQ9 = target: MAGI3_2, Q5TCQ9
Sequence of MAGI3_2, Q5TCQ9 (Q5TCQ9 398-503): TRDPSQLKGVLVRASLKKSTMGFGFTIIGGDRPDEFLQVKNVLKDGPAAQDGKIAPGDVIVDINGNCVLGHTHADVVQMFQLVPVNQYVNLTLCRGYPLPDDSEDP

Question: What does the source list for AKPQPVDSWV [ARVCF, O00192]?
Answer: pKd (NHERF3_1, Q5T2W1): below the threshold; pKd (DLG1_2, Q12959): 4.75; pKd (MAST2, Q6P0Q8): 3.86; pKd (GORASP2, Q9H8Y8): 4.51; pKd (SCRIB_1, Q14160): 3.74; pKd (SYNJ2BP, P57105): 5.04; pKd (ARHGAP21, Q5T5U3): below the threshold; pKd (GIPC2, Q8TF65): below the threshold; pKd (LNX1_2, Q8TBB1): below the threshold; pKd (DFNB31_2, Q9P202): below the threshold; pKd (NHERF3_4, Q5T2W1): below the threshold; pKd (APBA3_1, O96018): below the threshold; pKd (RHPN1, Q8TCX5): 3.8; pKd (DLG4_2, P78352): 4.81; pKd (FRMPD2_2, Q68DX3): 4.25; pKd (DLG3_3, Q92796): below the threshold; pKd (LNX2_3, Q8N448): below the threshold; pKd (DLG4_1, P78352): 4.2; pKd (DLG4_3, P78352): below the threshold; pKd (GRIP2_3, Q9C0E4): below the threshold; pKd (NHERF4_4, Q86UT5): below the threshold; pKd (DLG5_1, Q8TDM6): below the threshold; pKd (GRIP2_6, Q9C0E4): below the threshold; pKd (FRMPD4, Q14CM0): below the threshold; pKd (SNX27, Q96L92): 5.15; pKd (LRRC7, Q96NW7): 4.94; pKd (MAGI3_2, Q5TCQ9): 3.68

Question: Which results are given for KDECVIATEV [DLL1, O00548]?
Answer: pKd (NHERF3_1, Q5T2W1): 3.88; pKd (DLG1_2, Q12959): 4.37; pKd (MAST2, Q6P0Q8): 5.17; pKd (GORASP2, Q9H8Y8): below the threshold; pKd (SCRIB_1, Q14160): below the threshold; pKd (SYNJ2BP, P57105): 4.33; pKd (ARHGAP21, Q5T5U3): below the threshold; pKd (GIPC2, Q8TF65): below the threshold; pKd (LNX1_2, Q8TBB1): below the threshold; pKd (DFNB31_2, Q9P202): below the threshold; pKd (NHERF3_4, Q5T2W1): below the threshold; pKd (APBA3_1, O96018): below the threshold; pKd (RHPN1, Q8TCX5): 3.95; pKd (DLG4_2, P78352): 4.39; pKd (FRMPD2_2, Q68DX3): 3.99; pKd (DLG3_3, Q92796): below the threshold; pKd (LNX2_3, Q8N448): below the threshold; pKd (DLG4_1, P78352): 3.93; pKd (DLG4_3, P78352): below the threshold; pKd (GRIP2_3, Q9C0E4): below the threshold; pKd (NHERF4_4, Q86UT5): below the threshold; pKd (DLG5_1, Q8TDM6): below the threshold; pKd (GRIP2_6, Q9C0E4): below the threshold; pKd (FRMPD4, Q14CM0): below the threshold; pKd (SNX27, Q96L92): 4.36; pKd (LRRC7, Q96NW7): below the threshold; pKd (MAGI3_2, Q5TCQ9): below the threshold
